In patent US20140087995A1 (published 2014) one finds IC50 data, which are given here for two molecules.

Numbered stars: 1 amine (or outer) side, 2 acyl side, 3 side chain; on linkers, the order of the positions; unused ones are H or OH. Bridge positions count the residues as written; N and C are the ends. Side chains are listed from the residue outwards. Ends that are not written are not given here. * marks the point of attachment. C20 diacid = O=C(O)CCCCCCCCCCCCCCCCCCC(=O)*; γGlu = O=C(O)[C@H](CCC(=O)[*:2])N[*:1]; AEEA = NCCOCCOCC(=O)O

For the assay, the target named is T1, human calcitonin receptor (human, UniProt P30988 25-474).
T1 construct: whole, on cells; also called hCTR; hCT
T1 sequence (looked up): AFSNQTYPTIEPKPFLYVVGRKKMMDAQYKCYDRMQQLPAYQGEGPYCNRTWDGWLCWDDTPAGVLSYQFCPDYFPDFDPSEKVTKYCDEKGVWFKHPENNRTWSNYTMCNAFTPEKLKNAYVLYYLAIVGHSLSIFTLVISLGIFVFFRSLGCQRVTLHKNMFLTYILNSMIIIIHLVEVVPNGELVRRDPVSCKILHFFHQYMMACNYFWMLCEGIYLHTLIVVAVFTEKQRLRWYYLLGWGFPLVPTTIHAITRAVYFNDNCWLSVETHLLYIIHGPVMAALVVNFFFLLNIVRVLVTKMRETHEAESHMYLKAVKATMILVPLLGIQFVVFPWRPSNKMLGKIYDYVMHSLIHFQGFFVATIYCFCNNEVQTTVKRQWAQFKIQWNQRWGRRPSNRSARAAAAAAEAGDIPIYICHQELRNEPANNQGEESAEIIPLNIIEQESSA
The assay can be described thus: SPA competition with 125I-calcitonin, membranes of BHK hCTR cells (Assay VII). The protocol:
Membranes were prepared in the following way; the cells were rinsed with PBS and incubated with Versene for approximately 5 min before harvesting. The cells were flushed with PBS and the cell-suspension was centrifuged for 5 min at 1000 rpm. Cells were homogenized (Ultrathurrax) in a buffer containing 20 mM Na-HEPES and 10 mM EDTA (pH 7.4) and centrifuged at 20.000 rpm for 15 min. The resulting pellet was resuspended, homogenized and centrifuged (20.000 rpm, 15 min) in a buffer containing 20 mM Na-HEPES and 0.1 mM EDTA (pH 7.4, buffer 2). The resulting pellet was resuspended in buffer 2 and protein concentration was measured (BCA protein Assay, Pierce). The homogenate was kept cold during the whole procedure. The membranes were kept at −80° C. until use. Assay was performed in a 384 well Optiplate (PerkinElmer) in a total volume of 40 ul. Membranes were mixed with SPA beads. Final concentration of membranes 35 ng/μL final and Final concentration of SPA beads was 0.05 mg/well. Test-compounds were dissolved in DMSO and further diluted in assay buffer (50 mM Hepes, pH 7.4, 1 mM CaCl2, 5 mM MgCl₂, 0.1% OA and 0.02% Tween20). […] The final mixture was incubated for 120 min with shaking at 400 rpm at 25° C. prior to centrifugation (1500 rpm, 10 min). Samples were analyzed on TopCounter™ (Packard). The […] was calculated using (one site binding competition analysis) GraphPad Prism5 as a measure of receptor affinity.

B1: N^ε1-[2-[2-[2-[[(4S)-4-carboxy-4-(19-carboxynonadecanoylamino)butanoyl]amino]ethoxy]ethoxy]acetyl]-[Arg17,Pro21,Pro27,Pro28,Pro34]-h-amylin (peptide)
peptide: K([AEEA-γGlu-C20 diacid])CNTATCATQRLANFLRHSSPNFGAIPPSTNVGPNTY-NH2
modifications: disulfide 2-7; N-terminus assumed
SMILES: CC[C@H](C)[C@H](NC(=O)[C@H](C)NC(=O)CNC(=O)[C@H](Cc1ccccc1)NC(=O)[C@H](CC(N)=O)NC(=O)[C@@H]1CCCN1C(=O)[C@H](CO)NC(=O)[C@H](CO)NC(=O)[C@H](Cc1c[nH]cn1)NC(=O)[C@H](CCCNC(=N)N)NC(=O)[C@H](CC(C)C)NC(=O)[C@H](Cc1ccccc1)NC(=O)[C@H](CC(N)=O)NC(=O)[C@H](C)NC(=O)[C@H](CC(C)C)NC(=O)[C@H](CCCNC(=N)N)NC(=O)[C@H](CCC(N)=O)NC(=O)[C@@H](NC(=O)[C@H](C)NC(=O)[C@@H]1CSSC[C@H](NC(=O)[C@@H](N)CCCCNC(=O)COCCOCCNC(=O)CC[C@H](NC(=O)CCCCCCCCCCCCCCCCCCC(=O)O)C(=O)O)C(=O)N[C@@H](CC(N)=O)C(=O)N[C@@H]([C@@H](C)O)C(=O)N[C@@H](C)C(=O)N[C@@H]([C@@H](C)O)C(=O)N1)[C@@H](C)O)C(=O)N1CCC[C@H]1C(=O)N1CCC[C@H]1C(=O)N[C@@H](CO)C(=O)N[C@H](C(=O)N[C@@H](CC(N)=O)C(=O)N[C@H](C(=O)NCC(=O)N1CCC[C@H]1C(=O)N[C@@H](CC(N)=O)C(=O)N[C@H](C(=O)N[C@@H](Cc1ccc(O)cc1)C(N)=O)[C@@H](C)O)C(C)C)[C@@H](C)O
notes: also called compound 55
As usually defined, the IC50 is the concentration that inhibits the measured activity by half. Regarding B1, the half-maximal inhibitory concentration (IC50) is 2.17 nM.

B2: N^ε1-[2-[2-[2-[[(4S)-4-carboxy-4-(19-carboxynonadecanoylamino)butanoyl]amino]ethoxy]ethoxy]acetyl]-[Arg17,Pro21,Pro27,Pro29,Pro31]-h-amylin (peptide)
peptide: K([AEEA-γGlu-C20 diacid])CNTATCATQRLANFLRHSSPNFGAIPSPTPVGSNTY-NH2
modifications: disulfide 2-7; N-terminus assumed
SMILES: CC[C@H](C)[C@H](NC(=O)[C@H](C)NC(=O)CNC(=O)[C@H](Cc1ccccc1)NC(=O)[C@H](CC(N)=O)NC(=O)[C@@H]1CCCN1C(=O)[C@H](CO)NC(=O)[C@H](CO)NC(=O)[C@H](Cc1c[nH]cn1)NC(=O)[C@H](CCCNC(=N)N)NC(=O)[C@H](CC(C)C)NC(=O)[C@H](Cc1ccccc1)NC(=O)[C@H](CC(N)=O)NC(=O)[C@H](C)NC(=O)[C@H](CC(C)C)NC(=O)[C@H](CCCNC(=N)N)NC(=O)[C@H](CCC(N)=O)NC(=O)[C@@H](NC(=O)[C@H](C)NC(=O)[C@@H]1CSSC[C@H](NC(=O)[C@@H](N)CCCCNC(=O)COCCOCCNC(=O)CC[C@H](NC(=O)CCCCCCCCCCCCCCCCCCC(=O)O)C(=O)O)C(=O)N[C@@H](CC(N)=O)C(=O)N[C@@H]([C@@H](C)O)C(=O)N[C@@H](C)C(=O)N[C@@H]([C@@H](C)O)C(=O)N1)[C@@H](C)O)C(=O)N1CCC[C@H]1C(=O)N[C@@H](CO)C(=O)N1CCC[C@H]1C(=O)N[C@H](C(=O)N1CCC[C@H]1C(=O)N[C@H](C(=O)NCC(=O)N[C@@H](CO)C(=O)N[C@@H](CC(N)=O)C(=O)N[C@H](C(=O)N[C@@H](Cc1ccc(O)cc1)C(N)=O)[C@@H](C)O)C(C)C)[C@@H](C)O
notes: also called compound 54
For the molecule B2, the IC50 is 4.38 nM.
